Target: MogR, full-length (transcriptional repressor of flagellar motility genes) (Listeria monocytogenes)
Sequence (G2K449 whole entry): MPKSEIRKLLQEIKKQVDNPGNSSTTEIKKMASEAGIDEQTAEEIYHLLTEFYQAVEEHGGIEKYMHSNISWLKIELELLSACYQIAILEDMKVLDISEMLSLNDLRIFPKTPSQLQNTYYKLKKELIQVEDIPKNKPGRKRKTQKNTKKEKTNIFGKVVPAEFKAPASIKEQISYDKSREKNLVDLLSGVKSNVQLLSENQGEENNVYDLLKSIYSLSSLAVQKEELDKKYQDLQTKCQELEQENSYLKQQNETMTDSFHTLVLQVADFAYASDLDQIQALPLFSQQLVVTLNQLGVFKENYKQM

GmaR, full-length (bifunctional flagellar anti-repressor/glycosyltransferase) (natural protein)
gel mobility shift at 37°C: amount of purified GmaR-His6 needed to decrease shifted MogR-His6:DNA complexes as at 30°C: > 2 fold
